The supplement of paper PMC5998384

Tests used:
HeLa Kyoto [1] = experiment: solubility in G1/S (NP-40 vs SDS abundance) (log2 ratio); higher = more soluble; conditions: cell cycle stage: G1/S
HeLa Kyoto [2] = experiment: melting temperature (median over replicates), in situ; higher = more thermally stable
HeLa Kyoto [3] = experiment: solubility change mitosis vs G1/S (difference of NP-40 vs SDS log2 ratios) (log2 ratio difference); higher = more soluble in mitosis
HeLa Kyoto [4] = experiment: thermal stability score vs G1/S (z-score of summed log2 fold changes over temperatures); higher = more thermally stable than in G1/S
[5] = cell cycle stage: early G1 (4.5 h after nocodazole release)
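For melting temperature (median over replicates), in situ in this document: HeLa Kyoto cells synchronized by double thymidine or nocodazole block, proteins quantified by TMT10plex mass spectrometry, three independent biological replicates.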
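For solubility change mitosis vs G1/S (difference of NP-40 vs SDS log2 ratios) in this document: synchronized HeLa Kyoto cells (double thymidine block for G1/S, nocodazole release for mitosis), protein amounts in NP-40 versus SDS lysates quantified by mass spectrometry, three biological replicates.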
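For solubility in G1/S (NP-40 vs SDS abundance) in this document: HeLa Kyoto cells arrested at G1/S by double thymidine block, proteins quantified by TMT10plex mass spectrometry in mild NP-40 versus SDS extracts, three biological replicates.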
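For thermal stability score vs G1/S (z-score of summed log2 fold changes over temperatures) in this document: synchronized HeLa Kyoto cells, proteins quantified by TMT10plex mass spectrometry, three biological replicates, mitosis taken 0.5 h after nocodazole release, G1/S directly after double thymidine block.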

Sequence	solubility in G1/S (log2) (HeLa Kyoto [1])	melting temperature (HeLa Kyoto [2]; cell cycle stage: G1/S) [°C]	melting temperature (HeLa Kyoto [2]; cell cycle stage: mitosis) [°C]	solubility change mitosis (log2) (HeLa Kyoto [3])	thermal stability score (HeLa Kyoto [4]; [5])	thermal stability score (HeLa Kyoto [4]; cell cycle stage: mitosis)
MAKVSELYDVTWEEMRDKMRKWREENSRNSEQIVEVGEELINEYASKLGDDIWIIYEQVMIAALDYGRDDLALFCLQELRRQFPGSHRVKRLTGMRFEAMERYDDAIQLYDRILQEDPTNTAARKRKIAIRKAQGKNVEAIRELNEYLEQFVGDQEAWHELAELYINEHDYAKAAFCLEELMMTNPHNHLYCQQYAEVKYTQGGLENLELSRKYFAQALKLNNRNMRALFGLYMSASHIASNPKASAKTKKDNMKYASWAASQINRAYQFAGRSKKETKYSLKAVEDMLETLQITQS [EMC2]	0.188	53.8	53.9	0.0699	-1.21	-1.88
MAAPQDVHVRICNQEIVKFDLEVKALIQDIRDCSGPLSALTELNTKVKEKFQQLRHRIQDLEQLAKEQDKESEKQLLLQEVENHKKQMLSNQASWRKANLTCKIAIDNLEKAELLQGGDLLRQRKTTKESLAQTSSTITESLMGISRMMAQQVQQSEEAMQSLVTSSRTILDANEEFKSMSGTIQLGRKLITKYNRRELTDKLLIFLALALFLATVLYIVKKRLFPFL [BNIP1]	-0.186	52.3	51.7	-0.0998	1.09	0.444
MLRSVWNFLKRHKKKCIFLGTVLGGVYILGKYGQKKIREIQEREAAEYIAQARRQYHFESNQRTCNMTVLSMLPTLREALMQQLNSESLTALLKNRPSNKLEIWEDLKIISFTRSTVAVYSTCMLVVLLRVQLNIIGGYIYLDNAAVGKNGTTILAPPDVQQQYLSSIQHLLGDGLTELITVIKQAVQKVLGSVSLKHSLSLLDLEQKLKEIRNLVEQHKSSSWINKDGSKPLLCHYMMPDEETPLAVQACGLSPRDITTIKLLNETRDMLESPDFSTVLNTCLNRGFSRLLDNMAEFFRPTEQDLQHGNSMNSLSSVSLPLAKIIPIVNGQIHSVCSETPSHFVQDLLTMEQVKDFAANVYEAFSTPQQLEK [PEX3]	0.0923	50	49	-0.208	0.401	0.184
MAAMAPGGSGSGGGVNPFLSDSDEDDDEVAATEERRAVLRLGAGSGLDPGSAGSLSPQDPVALGSSARPGLPGEASAAAVALGGTGETPARLSIDAIAAQLLRDQYLLTALELHTELLESGRELPRLRDYFSNPGNFERQSGTPPGMGAPGVPGAAGVGGAGGREPSTASGGGQLNRAGSISTLDSLDFARYSDDGNRETDEKVAVLEFELRKAKETIQALRANLTKAAEHEVPLQERKNYKSSPEIQEPIKPLEKRALNFLVNEFLLKNNYKLTSITFSDENDDQDFELWDDVGLNIPKPPDLLQLYRDFGNHQVTGKDLVDVASGVEEDELEALTPIISNLPPTLETPQPAENSMLVQKLEDKISLLNSEKWSLMEQIRRLKSEMDFLKNEHFAIPAVCDSVQPPLDQLPHKDSEDSGQHPDVNSSDKGKNTDIHLSISDEADSTIPKENSPNSFPRREREGMPPSSLSSKKTVHFDKPNRKLSPAFHQALLSFCRMSADSRLGYEVSRIADSEKSVMLMLGRCLPHIVPNVLLAKREELIPLILCTACLHPEPKERDQLLHILFNLIKRPDDEQRQMILTGCVAFARHVGPTRVEAELLPQCWEQINHKYPERRLLVAESCGALAPYLPKEIRSSLVLSMLQQMLMEDKADLVREAVIKSLGIIMGYIDDPDKYHQGFELLLSALGDPSERVVSATHQVFLPAYAAWTTELGNLQSHLILTLLNKIEKLLREGEHGLDEHKLHMYLSALQSLIPSLFALVLQNAPFSSKAKLHGEVPQIEVTRFPRPMSPLQDVSTIIGSREQLAVLLQLYDYQLEQEGTTGWESLLWVVNQLLPQLIEIVGKINVTSTACVHEFSRFFWRLCRTFGKIFTNTKVKPQFQEILRLSEENIDSSAGNGVLTKATVPIYATGVLTCYIQEEDRKLLVGFLEDVMTLLSLSHAPLDSLKASFVELGANPAYHELLLTVLWYGVVHTSALVRCTAARMFELTLRGMSEALVDKRVAPALVTLSSDPEFSVRIATIPAFGTIMETVIQRELLERVKMQLASFLEDPQYQDQHSLHTEIIKTFGRVGPNAEPRFRDEFVIPHLHKLALVNNLQIVDSKRLDIATHLFEAYSALSCCFISEDLMVNHFLPGLRCLRTDMEHLSPEHEVILSSMIKECEQKVENKTVQEPQGSMSIAASLVSEDTKTKFLNKMGQLTTSGAMLANVFQRKK [KIAA1468]	-0.0233	50.8	51.1	-0.171	-0.253	-0.932
MQRALPGARQHLGAILASASVVVKALCAAVLFLYLLSFAVDTGCLAVTPGYLFPPNFWIWTLATHGLMEQHVWDVAISLTTVVVAGRLLEPLWGALELLIFFSVVNVSVGLLGAFAYLLTYMASFNLVYLFTVRIHGALGFLGGVLVALKQTMGDCVVLRVPQVRVSVMPMLLLALLLLLRLATLLQSPALASYGFGLLSSWVYLRFYQRHSRGRGDMADHFAFATFFPEILQPVVGLLANLVHSLLVKVKICQKTVKRYDVGAPSSITISLPGTDPQDAERRRQLALKALNERLKRVEDQSIWPSMDDDEEESGAKVDSPLPSDKAPTPPGKGAAPESSLITFEAAPPTL [TMEM115]	-0.146	55.8		0.0464	-2.84	-3.54
MIRNGRGAAGGAEQPGPGGRRAVRVWCDGCYDMVHYGHSNQLRQARAMGDYLIVGVHTDEEIAKHKGPPVFTQEERYKMVQAIKWVDEVVPAAPYVTTLETLDKYNCDFCVHGNDITLTVDGRDTYEEVKQAGRYRECKRTQGVSTTDLVGRMLLVTKAHHSSQEMSSEYREYADSFGKCPGGRNPWTGVSQFLQTSQKIIQFASGKEPQPGETVIYVAGAFDLFHIGHVDFLEKVHRLAERPYIIAGLHFDQEVNHYKGKNYPIMNLHERTLSVLACRYVSEVVIGAPYAVTAELLSHFKVDLVCHGKTEIIPDRDGSDPYQEPKRRGIFRQIDSGSNLTTDLIVQRIITNRLEYEARNQKKEAKELAFLEAARQQAAQPLGERDGDF [PCYT2]	0.000861	54.1	54.9	-0.199	0.197	0.0948
MSSASVTAFEKEHLWMYLQALGFEPGPATIACGKIVSHTHLGVNMFDKLNRDAFHIISYFLFQVLDQSLTKEVFKFCWPPFDQKSDTEFRKHCCEWIKRISGECGSSFPQVVGSLFLSPGGPKFIHLMYHFARFVAMKYIKSNSKNSSHHFVETFNIKPQDLHKCIARCHFARSRFLQILQRQDCVTQKYQENAQLSVKQVRNLRSECIGLENQIKKMEPYDDHSNMEEKIQKVRSLWASVNETLMFLEKEREVVSSVLSLVNQYALDGTNVAINIPRLLLDKIEKQMFQLHIGNVYEAGKLNLLTVIQLLNEVLKVMKYERCQADQARLTVDLHYLEKETKFQKERLSDLKHMRYRIKDDLTTIRHSVVEKQGEWHKKWKEFLGLSPFSLIKGWTPSVDLLPPMSPLSFDPASEEVYAKSILCQYPASLPDAHKQHNQENGCRGDSDTLGALHDLANSPASFLSQSVSSSDRNSVTVLEKDTKMGTPKEKNEAISKKIPEFEVENSPLSDVAKNTESSAFGGSLPAKKSDPFQKEQDHLVEEVARAVLSDSPQLSEGKEIKLEELIDSLGSNPFLTRNQIPRTPENLITEIRSSWRKAIEMEENRTKEPIQMDAEHREVLPESLPVLHNQREFSMADFLLETTVSDFGQSHLTEEKVISDCECVPQKHVLTSHIDEPPTQNQSDLLNKKVICKQDLECLAFTKLSETSRMETFSPAVGNRIDVMGGSEEEFMKILDHLEVSCNKPSTNKTMLWNSFQISSGISSKSFKDNDFGILHETLPEEVGHLSFNSSSSSEANFKLEPNSPMHGGTLLEDVVGGRQTTPESDFNLQALRSRYEALKKSLSKKREESYLSNSQTPERHKPELSPTPQNVQTDDTLNFLDTCDLHTEHIKPSLRTSIGERKRSLSPLIKFSPVEQRLRTTIACSLGELPNLKEEDILNKSLDAKEPPSDLTR [HAUS6]	-0.0247	48.3	49.1	-0.0199	0.745	1.14
MAEMGSKGVTAGKIASNVQKKLTRAQEKVLQKLGKADETKDEQFEQCVQNFNKQLTEGTRLQKDLRTYLASVKAMHEASKKLNECLQEVYEPDWPGRDEANKIAENNDLLWMDYHQKLVDQALLTMDTYLGQFPDIKSRIAKRGRKLVDYDSARHHYESLQTAKKKDEAKIAKPVSLLEKAAPQWCQGKLQAHLVAQTNLLRNQAEEELIKAQKVFEEMNVDLQEELPSLWNSRVGFYVNTFQSIAGLEENFHKEMSKLNQNLNDVLVGLEKQHGSNTFTVKAQPSDNAPAKGNKSPSPPDGSPAATPEIRVNHEPEPAGGATPGATLPKSPSQLRKGPPVPPPPKHTPSKEVKQEQILSLFEDTFVPEISVTTPSQFEAPGPFSEQASLLDLDFDPLPPVTSPVKAPTPSGQSIPWDLWEPTESPAGSLPSGEPSAAEGTFAVSWPSQTAEPGPAQPAEASEVAGGTQPAAGAQEPGETAASEAASSSLPAVVVETFPATVNGTVEGGSGAGRLDLPPGFMFKVQAQHDYTATDTDELQLKAGDVVLVIPFQNPEEQDEGWLMGVKESDWNQHKELEKCRGVFPENFTERVP [BIN1]	0.803	51.9	51.6	-0.0586	-1.69	0.531
MSWFNASQLSSFAKQALSQAQKSIDRVLDIQEEEPSIWAETIPYGEPGISSPVSGGWDTSTWGLKSNTEPQSPPIASPKAITKPVRRTVVDESENFFSAFLSPTDVQTIQKSPVVSKPPAKSQRPEEEVKSSLHESLHIGQSRTPETTESQVKDSSLCVSGETLAAGTSSPKTEGKHEETVNKESDMKVPTVSLKVSESVIDVKTTMESISNTSTQSLTAETKDIALEPKEQKHEDRQSNTPSPPVSTFSSGTSTTSDIEVLDHESVISESSASSRQETTDSKSSLHLMQTSFQLLSASACPEYNRLDDFQKLTESCCSSDAFERIDSFSVQSLDSRSVSEINSDDELSGKGYALVPIIVNSSTPKSKTVESAEGKSEEVNETLVIPTEEAEMEESGRSATPVNCEQPDILVSSTPINEGQTVLDKVAEQCEPAESQPEALSEKEDVCKTVEFLNEKLEKREAQLLSLSKEKALLEEAFDNLKDEMFRVKEESSSISSLKDEFTQRIAEAEKKVQLACKERDAAKKEIKNIKEELATRLNSSETADLLKEKDEQIRGLMEEGEKLSKQQLHNSNIIKKLRAKDKENENMVAKLNKKVKELEEELQHLKQVLDGKEEVEKQHRENIKKLNSMVERQEKDLGRLQVDMDELEEKNRSIQAALDSAYKELTDLHKANAAKDSEAQEAALSREMKAKEELSAALEKAQEEARQQQETLAIQVGDLRLALQRTEQAAARKEDYLRHEIGELQQRLQEAENRNQELSQSVSSTTRPLLRQIENLQATLGSQTSSWEKLEKNLSDRLGESQTLLAAAVERERAATEELLANKIQMSSMESQNSLLRQENSRFQAQLESEKNRLCKLEDENNRYQVELENLKDEYVRTLEETRKEKTLLNSQLEMERMKVEQERKKAIFTQETIKEKERKPFSVSSTPTMSRSSSISGVDMAGLQTSFLSQDESHDHSFGPMPISANGSNLYDAVRMGAGSSIIENLQSQLKLREGEITHLQLEIGNLEKTRSIMAEELVKLTNQNDELEEKVKEIPKLRTQLRDLDQRYNTILQMYGEKAEEAEELRLDLEDVKNMYKTQIDELLRQSLS [TMF1]	0.0833	54.5	54.4	-0.065	-2.48	-0.992
